Paper PMC12168268, “Targeted inhibition of Ninjurin2 promotes chemosensitivity in chemoresistant gastric cancer by suppressing cancer-initiating cells” (Biomarker Research, 2025)

Target: T1, recombinant human Periostin (human, UniProt Q15063 22-836)
T1 construct: Periostin, human, recombinant; source: bought: Sino Biological
T1 sequence (looked up): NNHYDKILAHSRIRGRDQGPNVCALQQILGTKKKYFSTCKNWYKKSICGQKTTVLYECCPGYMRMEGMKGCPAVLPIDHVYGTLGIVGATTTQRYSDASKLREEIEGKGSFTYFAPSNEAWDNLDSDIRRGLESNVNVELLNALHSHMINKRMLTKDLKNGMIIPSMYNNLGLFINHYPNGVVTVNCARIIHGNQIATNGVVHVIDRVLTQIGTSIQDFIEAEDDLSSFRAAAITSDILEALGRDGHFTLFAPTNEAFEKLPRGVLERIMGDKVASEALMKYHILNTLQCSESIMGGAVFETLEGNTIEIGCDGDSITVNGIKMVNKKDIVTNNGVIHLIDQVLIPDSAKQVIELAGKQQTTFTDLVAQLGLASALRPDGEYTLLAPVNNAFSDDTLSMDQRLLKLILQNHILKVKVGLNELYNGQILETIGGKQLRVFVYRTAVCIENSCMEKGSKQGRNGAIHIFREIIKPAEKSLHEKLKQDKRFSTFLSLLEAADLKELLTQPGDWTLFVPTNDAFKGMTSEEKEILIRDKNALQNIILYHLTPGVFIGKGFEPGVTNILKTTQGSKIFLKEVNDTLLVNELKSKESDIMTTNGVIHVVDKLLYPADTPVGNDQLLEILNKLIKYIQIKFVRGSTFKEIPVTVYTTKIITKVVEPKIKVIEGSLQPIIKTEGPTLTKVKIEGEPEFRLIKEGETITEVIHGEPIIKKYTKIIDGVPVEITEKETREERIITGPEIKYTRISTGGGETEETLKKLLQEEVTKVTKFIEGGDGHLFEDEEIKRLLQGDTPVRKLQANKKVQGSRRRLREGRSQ
Assay: SPR; Biacore 3000; NINJ2 extracellular domain immobilised by amine coupling on a carboxymethyldextran chip (CMD200M); periostin injected at 231, 116, 58, 29 and 14 nM, 30 µL/min, 2 min association, 5 min dissociation; HBS-T (10 mM HEPES, 150 mM NaCl, 0.005% Tween20) pH 7.4
Conditions: both partners purified

B1: extracellular domain (Met1-Thr65) of recombinant human NINJ2 (domain or fragment, UniProt Q9NZG7 1-65, looked up)
chain: MESARENIDLQPGSSDPRSQPINLNHYATKKSVAESMLDVALFMSNAMRLKAVLEQGPSSHYYTT
notes: Ninjurin-2 (NINJ2), human, extracellular domain, residues Met1-Thr65; also called NINJ2 extracellular domain; source: bought: R&D Systems
Kd: 16.9 nM
